Measurements: the DeepSol protein solubility set

Assay: soluble on expression in E. coli; label from the status in PepcDB or PDB records

## MIHLEHINLVVDDIPKALIFYQAAFPHWRIRGGGESTWYSKPRNWTHFGDDYQYIAFSDNGEGENRDLTGHQIGLAHFAFVVSDLDAIITRLTQAGFPIAKEGMEDPYRRNIYFFDAHGFEVEFVEYLSDIPAERNRYLEHHHHHH
  soluble on expression in E. coli: soluble

## MAHHHHHHMDSIVLPGEALGSCDAYVSGENTYSLQKEVRSAILGRRQLTTNGDGKQVISVANTKEFIPLPQVGDLVTCKVYRVTFNLIYCNIILLNSKAVRNSFRAFINKSDIHVYEGELGDNFECFKQGDIIRAKVLSVAQHGSYKLSTVGSDLGVILALSDGGERKRGKKQKKTKKQKKKKKKKEP
  soluble on expression in E. coli: not soluble

## MGVDKKQKQRKTNPFELKFNKSKHDILGRKKGAQVGAPTASRKRAHEQREQTLGVEYDRKNKISKIVDKRLGEKDGKSEEEKGAMRFTEERVKNYKRASKFNLTDDGDEEEEVLTHKGKALSDIEKYDKSMISDSDDDEEPGNLGSNMVKVAHFGGGEKTAEEHVREKISREDMISNLIAKTKLARHEKQQQKDELELMTESLDSKYQALMGKMKASFRPTGRQPLEKDDYDKLTITLKTEADARATPADRKLSEEEEALKEKERLETLEAAPDADVDIDAGSKADARKVQAKNSRFEVKFDDEGGLIDEDTVEKSRILKKNLDGSDESDDDEDLEDEEEDLDDLLEDEDELEEDSDDEEAQEAQKVVKKAKKSAPEPAETLPFVFEMPKNYKKFCALLEKHSESMDLVLERLVKCHHPSLKEGNKKRLNKLFLLCLRWFDDMSKEELTAESVKEMNLAQETMHALMKFDIQYGVRCVRALIRQHWKGRQDKQKSSPVSFGLISAIRLVSGLFPVADSWHPVVVPALFLATEALCSAKCANLNALAKQIQLANAIVEYVSESKRYVPELVAFARSALLLAVTEKSEKFATNGFPISKPHTEMLCFEEKYTGPALQPISLTTIFNNSPSDPSLKLHVLRALLSLIQHLRVIYSNQNETYSIVFKPFLRILESIQAKNLPAEVQEELETLCASMKAEIGAKCRLVHLSLVKTEKSMLKMLEPRFEWDFDPERPHHGPKDEKKKLTKNLRNERRGAIKELRKDTAFLARKQLSSVKTKDRARIAATKRVMGGLMQQQGEWNKEKRTADVEKKKDKK
  soluble on expression in E. coli: soluble

## MEGTPNVPQAHRYELTLAGRPLVLETGKYAKQASGSVLVRYADTVVLATAQASETPVEADFLPLTVEFEERHYAVGKIPGSFMRREGRPGEKAILSARMTDRPIRPLFPKGFRHEVQIIVTVLSADQKNPPDILGPIAASAALMLSDIPWEGPIAAVRVGLIGGSFVLNPTLQELEESQLDLVVAGSKEAILMVEAEAGEVDEETLVQALEFAHKEMQPILELQEAMARELAKPKMAWTPPESLPEEEKEALYRLALERGLSQVLQTASKGERSRALAEFAERLIAEALPKGEDGTPDEGKKPLYESAFDEVVRRELRRLVLEEGKRADGRGPKDLRPIWIEVDVLPRAHGSAVFTRGETQVLGTVTLGTGRDEQILDDLGIDETEKFLVHYNFPPFSTGEVRRLRGVSRREVGHGNLAKRALKAVMPKEEDFPYTIRVVGDVLESNGSSSMATVCAGCLALMDAGVPIRAPVAGVAMGLVWEENRAVILTDILGLEDALGDMDFKVAGTRKGVTALQMDNKVGGLPREVLKEALLQAREARLKILDLMEAVLPAPRPELKPFAPRILSLKVPVEKIGLVIGPGGKNVRALEELGVEVDIEEDGTVRIYSSDLQAALEAKKRIEDLTREAKVGEIYEGTVTRITPFGAFISLFPGTEGLLHISQIAPGRVARVEDHLKVGDVIKVKVHRIDERGKIDLIRPELEGKIPPRRRR
  soluble on expression in E. coli: soluble

## MSPSIFPPINFLFQNSALLSSFAAQKALSNGHPSGSSLAALEKLSKAFRRPDLHIEKLASSCIDKQKDLKMTNVVPSRNRYGRPYISGRPLLTCDRQKIVECYKKGMKKIHIAKQLGITHSCVSKVLRR
  soluble on expression in E. coli: not soluble

## AIANSRAADQLELDGLPGTPPDFYRERQRSRVERYQSPAGAPLQCSVQVQTTQEHPLWTSHVWSGARALADTLCWQPELIAGKTVCELGAGAGLVSIVAFLAGADQVVATDYPDPEILNSLESNIREHTANSCSSETVKRASPKVVPYRWGDSPDSLQRCTGLQRFQVVLLADLLSFHQAHDALLRSVKMLLALPANDPTAVALVTFTHHRPHLAERDLAFFRLVNADGALIAEPWLSPLQMDPMFPDDPGDVCIRGQVHRWRLRWRSAASASANIPAHARNE
  soluble on expression in E. coli: soluble

## MEWAAKKTNSLTSSSERTWKANLLVPVEDPRELMGTFDFLRDITYPKGSVKLLGLAGNTDKENLLSQLPSISEGFQEEGVFSSWTIIDTAEFEENLVVGMEALTGSFFRPSILFLRLPENRDRDEEIREIIRKASMYRMGVLLFSKHPQAGLGRQNLINLWIENRGLDWDISMELGNMDLALLIAYKLKSNWKASLSFMTFAPTAIQAQAAENFLQSLAELARIPNVKMQVLRENPIKSSKLPFASLHIFSLDPNPDLDLARHLMEKAGSSCIFALDSGEENALALLEHHHHHH
  soluble on expression in E. coli: soluble

## AGCEGLRIGQSALQARLSDQIDKLTQAEQHANQMLIDVRSRNHDTMKHITAIKSAQPKADTQAYIQNWADQYSQYDRFLKGENAYVAGVLYDFLEKARASNVSVSLHMHTPLSSLPFSPADQVSLVGNILENALDSAAEAREKAEIKLETSLRSGLYVLTCENSTPGMDPKVLDTIYQSFGRSTKNGAHEGMGTYIIQKLVKGAFGRLDFTYRHPIFRLEIKIPFQ
  soluble on expression in E. coli: not soluble

## SDTGVIEGGLNVTLTIRLLMHGKEVGSIIGKKGESVKKMREESGARINISEGNCPERIITLAGPTNAIFKAFAMIIDKLEEDISSSMTNSTAASRPPVTLRLVVPASQCGSLIGKGGCKIKEIRESTGAQVQVAGDMLPNSTERAITIAGIPQSIIECVKQICVVMLETLSQSPPKGVTIPYRPKPSSSPVIFAGGQDRYSTGSDSASFPHTTPSMCLNPDLEGPPLEAYTIQGQYAIPQPDLTKLHQLAMQQSHFPMTHGNTGFSGIESSSPEVKGYWAGLDASAQTTSHELTIPNDLIGCIIGRQGAKINEIRQMSGAQIKIANPVEGSTDRQVTITGSAASISLAQYLINVRLSSETGGMGSS
  soluble on expression in E. coli: soluble

## HIPEMGGQHYLGDSLDKDWRVTRDNQQFAFEYQDNEGQAQSKVLTLKVGDNLEEVATYINAQQSVVDASVTQDHQLQFFTSTLNAPEGITWKGNFADEMDIGSGELVTVDDLDMSTVGGAQLAIGVVDAAIKYVDSHRSEIGGFQNRVSGTIDNLNTINRSVSESKGRIRDTDFARESTVMVRSQVLQDATTALLAQAKQRPSSALGLLS
  soluble on expression in E. coli: not soluble

## MGHHHHHHSHMFTMLCINGTTPRPLPVPSPFGCMIFFFFKNPWKQCLLQGWLGARPIHLLGYLPLSLLWCPFPLPCARCSVVYISSPRHGAHAPRDMILSLVLAHGALYKELGGRGRKWEPS
  soluble on expression in E. coli: not soluble

## MSLSLDFSDNTFQPLAARMRPENLAQYIGQQHLLAAGKPLPRAIEAGHLHSMILWGPPGTGKTTLAEVIARYANADVERISAVTSGVKEIREAIERARQNRNAGRRTILFVDEVHRFNKSQQDAFLPHIEDGTITFIGATTENPSFELNSALLSRARVYLLKSLSTEDIEQVLTQAMEDKTRGYGGQDIVLPDETRRAIAELVNGDARRALNTLEMMADMAEVDDSGKRVLKPELLTEIAGERSARFDNKGDRFYDLISALHKSVRGSAPDAALYWYARIITAGGDPLYVARRCLAIASEDVGNADPRAMQVAIAAWDCFTRVGPAEGERAIAQAIVYLACAPKSNAVYTAFKAALADARERPDYDVPVHLRNAPTKLMKEMGYGQEYRYAHDEANAYAAGEVYFPPEIAQTRYYFPTNRGLEGKIGEKLAWLAEQDQNEGHHHHHH
  soluble on expression in E. coli: soluble

## MEPNPSDPVLTDRIQAIVTTEKSIDEMMKCAREIIQDLGKEKQIGKNKMEDNANNFKKLITQVENELSAQMQYLSHVCVGSSHQGSTFGVLQNSLLAQSGLSSLHSELFQIVRYLDPTSDEPQTTEEDEEDGSDDLNEDGADGAPSSTVTSSTTDGSGGGDDAASSSAPRSQEESGRQMTDDDDDMEQ
  soluble on expression in E. coli: not soluble

## MWGWKAVGIKIDPSVSLEQAREIIKEAGFQEYVVNPEYIIFKQTGTQLTIKGEELPIEVVIGSAESGIFLQARYDTFVLFDSGDLAKLADELVFKLSV
  soluble on expression in E. coli: not soluble
